Data from PMC12041282.

Molecular target: ectodomain of the SFTSV Gn glycoprotein (amino acids 20-453), Gn-his (SFTSV)
Experiment: SPR

Substance: Recombinant human LRP1 CLII-Fc (Fc fusion)
- Kd: 16.8 nM
